Positions of bridges follow the written chain, without caps; N, C: chain ends. Primed or numbered codes have the meaning given here. No end group written: not given here. PEG3′ = not defined here

Here are results for 16 molecules from US20170348438A1 (CASE WESTERN RESERVE UNIVERSITY, published 2017).

B1: Scrambled peptide MDPHAHNGGGS (peptide)
peptide: MDPHAHNGGGS-NH2
notes: Synthetic control peptide with a GGGS spacer; also called scrambled control
B2: M13 phage displaying MTP9 (ACPTGLHHAC) (peptide)
peptide: ACPTGLHHAC
modifications: disulfide 2-10 (inferred); also: displayed on M13 phage coat protein fusion
notes: Tested as whole phage in the ELISA; cyclic library; not shown: rest of the M13 coat protein fusion of the Ph.D.-C7C library (New England Biolabs); not described
B3: M13 phage displaying MTP8 (ACPHHPQKHC) (peptide)
peptide: ACPHHPQKHC
modifications: disulfide 2-10 (inferred); also: displayed on M13 phage coat protein fusion
notes: as for B2
B4: M13 phage displaying MTP7 (ACYGKPEHHC) (peptide)
peptide: ACYGKPEHHC
modifications: disulfide 2-10 (inferred); also: displayed on M13 phage coat protein fusion
notes: as for B2
B5: MTP2 synthetic peptide ASSHIHHGGGS (peptide)
peptide: ASSHIHHGGGS-NH2
B6: M13 phage displaying MTP1 (TTFHHHK) (peptide)
peptide: TTFHHHK
notes: Tested as whole phage in the ELISA; not shown: rest of the M13 coat protein fusion of the Ph.D.-7 library (New England Biolabs); not described
B7: M13 phage displaying MTP4 (ACKAPAHHHC) (peptide)
peptide: ACKAPAHHHC
modifications: disulfide 2-10 (inferred); also: displayed on M13 phage coat protein fusion
notes: as for B2
B8: M13 phage displaying MTP6 (ACNSVHQHHC) (peptide)
peptide: ACNSVHQHHC
modifications: disulfide 2-10 (inferred); also: displayed on M13 phage coat protein fusion
notes: as for B2
B9: M13 phage displaying MTP10 (ACRPKNNHSC) (peptide)
peptide: ACRPKNNHSC
modifications: disulfide 2-10 (inferred); also: displayed on M13 phage coat protein fusion
notes: as for B2
B10: His-tagged MRP-14 (other)
chain: MTCKMSQLERNIETIINTFHQYSVKLGHPDTLNQGEFKELVRKDLQNFLKKENKNEKVIEHIMEDLDTNADKQLSFEEFIMLMARLTWASHEKMHEGDEGPGHHHKPGLGEGTP
notes: Commercial His-tagged protein, captured on a Ni-NTA chip for SPR and coated on plates for the phage ELISA; The position of the His tag is unknown; its order in the chain is arbitrary; not shown: His tag
B11: M13 phage displaying MTP3 (HNHMADP) (peptide)
peptide: HNHMADP
notes: as for B6
B12: MTP3 synthetic peptide HNHMADPGGGS (peptide)
peptide: HNHMADPGGGS-NH2
B13: MTP6-N3 (azide-functionalized MTP6) (peptide)
peptide: ACNSVHQHHCGGGS-{PEG3′-azide}
modifications: disulfide 2-10 (inferred)
B14: M13 phage displaying MTP2 (ASSHIHH) (peptide)
peptide: ASSHIHH
notes: as for B6
B15: MTP6 synthetic peptide ACNSVHQHHCGGGS (peptide)
peptide: ACNSVHQHHCGGGS-NH2
modifications: disulfide 2-10 (inferred)
notes: lead peptide
B16: M13 phage displaying MTP5 (ACNSHRHGAC) (peptide)
peptide: ACNSHRHGAC
modifications: disulfide 2-10 (inferred); also: displayed on M13 phage coat protein fusion
notes: as for B2

Test [1] addresses B10. The experiment in a line: SPR, His-tagged MRP-14 on Ni-NTA chip, peptide injected. For orientation: SPR reads the build-up and loss of mass on a sensor chip optically.
The target of the next test is T1, bovine serum albumin (bovine, UniProt P02769 25-607).
T1 construct: Background control in the phage ELISA; also called BSA
T1 sequence (P02769 25-607 limits assumed): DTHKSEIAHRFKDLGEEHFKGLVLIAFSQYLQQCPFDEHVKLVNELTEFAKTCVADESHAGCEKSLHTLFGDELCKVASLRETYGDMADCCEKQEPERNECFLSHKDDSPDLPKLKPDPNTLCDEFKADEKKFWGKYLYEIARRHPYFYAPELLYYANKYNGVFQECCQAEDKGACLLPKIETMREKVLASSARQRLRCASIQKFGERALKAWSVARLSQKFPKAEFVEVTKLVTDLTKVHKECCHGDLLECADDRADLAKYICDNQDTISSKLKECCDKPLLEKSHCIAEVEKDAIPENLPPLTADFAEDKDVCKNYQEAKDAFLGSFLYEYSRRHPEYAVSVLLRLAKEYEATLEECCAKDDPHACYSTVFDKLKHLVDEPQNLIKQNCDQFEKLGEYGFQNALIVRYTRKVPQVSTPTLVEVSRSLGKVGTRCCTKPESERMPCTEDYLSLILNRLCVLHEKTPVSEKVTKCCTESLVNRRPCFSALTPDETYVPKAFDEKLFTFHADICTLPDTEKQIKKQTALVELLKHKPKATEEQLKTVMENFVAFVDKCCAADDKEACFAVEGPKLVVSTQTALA
Put plainly: phage ELISA on BSA-blocked wells, HRP anti-M13 antibody, ABTS, absorbance 410 nm. (In general: In an ELISA, binding on a coated surface is turned into a signal by an enzyme label.)

Test [2] has as its target B10. Put plainly: SPR, His-tagged MRP-14 on Ni-NTA chip, saturation binding curve fit.
Test [3] has as its target T2, TMV-MTP6 (tobacco mosaic virus particle displaying MTP6) (tobacco mosaic virus, UniProt P69687 2-159, alkyne handle (3-ethynylaniline diazonium) on exterior tyrosine residues; about 20% of the coat proteins carry MTP6; C-terminal 3-monomer PEG spacer and azide, joined by CuAAC to an alkyne on …).
T2 construct: Whole virus nanoparticle (with its RNA) with about 400 MTP6 peptides on 2130 coat proteins
The experiment in a line: SPR, His-tagged MRP-14 on Ni-NTA chip, kinetic curve fit, concentration as MTP6 peptide.

Test [4] addresses T2, TMV-MTP6 (tobacco mosaic virus particle …). Put plainly: SPR, His-tagged MRP-14 on Ni-NTA chip, kinetic curve fit.
Test [5] has as its target T3, MRP-8/14 heterodimer (untagged MRP-8 premixed 1:1 with His-tagged MRP-14) (UniProt P05109 1-93; P06702 1-114).
T3 construct: Formed by mixing equal molar amounts for 3 hours with 0.1 mM CaCl2; only MRP-14 has a His tag; not shown: His tag
T3 sequence 1: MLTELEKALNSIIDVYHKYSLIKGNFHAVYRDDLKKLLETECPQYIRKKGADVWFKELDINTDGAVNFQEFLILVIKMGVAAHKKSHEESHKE
T3 sequence 2: B10 chain
The experiment in a line: SPR, MRP-8/14 held on Ni-NTA chip by the His tag of MRP-14, saturation binding curve fit; MRP-8/14 heterodimer on the chip, not MRP-14 alone.

T2 sequence (P69687 2-159): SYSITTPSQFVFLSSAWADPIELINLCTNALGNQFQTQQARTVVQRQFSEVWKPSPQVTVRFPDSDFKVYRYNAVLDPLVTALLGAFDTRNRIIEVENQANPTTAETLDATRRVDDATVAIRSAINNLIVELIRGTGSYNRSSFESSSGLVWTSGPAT

In the case of B1, the binding result in the test with His-tagged MRP-14 [1] was “no binding (tested: 6.25 µM to 100 µM)”.
With B2, the binding result with bovine serum albumin was “no binding (tested: 2.5E+11 pfu/mL)”.
On the same count and under the same terms, for B3 the value was “no binding (tested: 2.5E+11 pfu/mL)”; for B4, “no binding (tested: 2.5E+11 pfu/mL)”.
As to B5, in the test with His-tagged MRP-14 [2], the affinity, expressed as Kd, was 77.6 µM.
In the case of B6, the binding result with bovine serum albumin was “no binding (tested: 2.5E+11 pfu/mL)”.
The same measure, in the same setting: for B7 the value was “no binding (tested: 2.5E+11 pfu/mL)”; for B8, “no binding (tested: 2.5E+11 pfu/mL)”; for B9, “no binding (tested: 2.5E+11 pfu/mL)”.
In test [3], B10 gave a Kd of 0.754 µM. In test [4], this molecule gave a koff of 0.000686 s⁻¹ and a kon of 910 M⁻¹ s⁻¹.
Turning to B11, in the test with bovine serum albumin, the binding result is “no binding (tested: 2.5E+11 pfu/mL)”.
Turning to B12, in the test with His-tagged MRP-14 [2], the Kd was determined as 117 µM.
Molecule B13 displayed a Kd with His-tagged MRP-14 [2] of 55.7 µM. This Kd is about 2.1-fold lower than that of the molecule before.
On to B14, for which the binding result in the test with bovine serum albumin is listed as “no binding (tested: 2.5E+11 pfu/mL)”.
In the case of B15, the Kd amounted to 57.6 µM in test [5] and 39.6 µM in the test with His-tagged MRP-14 [2].
Take B16: in the test with bovine serum albumin, the binding result is given as “no binding (tested: 2.5E+11 pfu/mL)”.

For orientation: Kd means the concentration at which binding is half-saturated. A high value points to a looser complex. One may read the koff as the first-order rate constant of dissociation. The low end stands for a long-lived complex, the high end for a short-lived complex. What is called kon is the rate constant with which the complex forms. A lower kon goes with slow association.
